# Laboratory results taken from publication PMC11090908, “Aurora-A condensation mediated by BuGZ aids its mitotic centrosome functions” (iScience, 2024).
# T1: Aurora-A catalytic domain (CD, 128-403aa), unlabelled, as used in the NMR titration (human, UniProt O14965 128-403)
# T1 construct: also called Aurora-A CD; AuroraA Kinase; source: purified
# T1 sequence (looked up): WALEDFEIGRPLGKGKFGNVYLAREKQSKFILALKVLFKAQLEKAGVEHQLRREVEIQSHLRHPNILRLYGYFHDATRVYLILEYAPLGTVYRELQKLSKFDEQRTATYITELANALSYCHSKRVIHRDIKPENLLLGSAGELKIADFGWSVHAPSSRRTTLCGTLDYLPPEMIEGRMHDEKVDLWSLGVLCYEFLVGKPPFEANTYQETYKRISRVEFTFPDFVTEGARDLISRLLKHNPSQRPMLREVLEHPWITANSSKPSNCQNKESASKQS
# T2: His-hAurora-A-CD (Aurora-A catalytic domain, 122-403aa) (human, UniProt O14965 122-403)
# T2 construct: Cloned into pET-28a at the BamHI site; also called His-Aurora-A-CD; hAurora-CD; source: E. coli Rosetta (DE3), purified
# T2 sequence (looked up): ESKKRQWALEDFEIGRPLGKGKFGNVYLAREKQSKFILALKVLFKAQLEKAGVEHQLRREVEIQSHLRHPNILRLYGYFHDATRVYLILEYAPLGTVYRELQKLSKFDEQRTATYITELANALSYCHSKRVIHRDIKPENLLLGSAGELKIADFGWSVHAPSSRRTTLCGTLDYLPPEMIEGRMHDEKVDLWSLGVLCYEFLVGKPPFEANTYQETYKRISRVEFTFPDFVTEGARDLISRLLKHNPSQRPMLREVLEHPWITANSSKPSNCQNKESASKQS
# Legend:
# [1] = target: T1, Aurora-A catalytic domain (CD, …); experiment: NMR titration; 1H-15N HSQC of labelled Aurora-A IDR (0.1 mM) without and with unlabelled catalytic domain, 1:2 IDR:CD molar ratio; 278 K; 20 mM NaH2PO4, 50 mM NaCl, 2 mM EDTA, 1 mM DTT, pH 6.4; settings: both partners purified
# [2] = target: T2, His-hAurora-A-CD (Aurora-A catalytic …); experiment: pull-down; 5 μg His-hAurora-A-CD with 5 μg GST-BuGZ-N or GST on glutathione-agarose, 200 μL 0.1% PBST (Triton X-100), 4°C, 2 h; Western blot and Coomassie; settings: both partners purified
binding result [1],binding result [2],Binder
binds,–,"Aurora-A IDR (intrinsic disordered region, 1-127aa) (domain or fragment, human, UniProt O14965 1-127, looked up, Aurora-A (Aurora kinase A), human, N-terminal intrinsic disordered region; 1-127aa in the NMR text and legend, 1-126aa in the constructs section; The methods list the construct pET-28a-hAurora-IDR as 1-126aa; the NMR results and legend say 1-127aa; Uniformly isotope-labelled for NMR; also called hAurora-IDR; source: E. coli BL21(DE3), isotope-labelled (15N, 13C), purified, His tag removed by TEV …) MDRSKENCISGPVKATAPVGGPKRVLVTQQFPCQNPLPVNSGQAQRVLCPSNSSQRIPLQAQKLVSSHKPVQNQKQKQLQATSVPHPVSRPLNNTQKSKQPLPSAPENNPEEELASKQKNEESKKRQ"
–,binds,"GST-BuGZ-N (hBuGZ N-terminus, 1-92aa) (domain or fragment, BuGZ (ZNF207), human, N-terminus with the zinc fingers, residues 1-92; Cloned into pGEX-6P-1 at the EcoRI site; also called GST-BuGZ-N-terminus; source: E. coli Rosetta (DE3), purified) not shown"
